Measured values reported in US20140178899.

T1: mutant BH3 peptide (aa 108-127) in which Thr119 was substituted to alanine (T119A)
T1 chain: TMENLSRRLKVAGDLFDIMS

T2: peptide corresponding to Beclin's BH3 domain (aa 108-127)
T2 chain: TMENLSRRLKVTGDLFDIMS

B1: DAPk's catalytic domain (DK1), bacterially purified (protein)
chain: MTVFRQENVDDYYDTGEELGSGQFAVVKKCREKSTGLQYAAKFIKKRRTKSSRRGVSREDIEREVSILKEIQHPNVITLHEVYENKTDVILILELVAGGELFDFLAEKESLTEEEATEFLKQILNGVYYLHSLQIAHFDLKPENIMLLDRNVPKPRIKIIDFGLAHKIDFGNEFKNIFGTPEFVAPEIVNYEPLGLEADMWSIGVITYILLSGASPFLGDTKQETLANVSAVNYEFEDEYFSNTSALAKDFIRRLLVKDPKKRMTIQDSLQHPWIKPKDTQQALS
B2: Flag-tagged DAPk (full length) (protein)
chain: MTVFRQENVDDYYDTGEELGSGQFAVVKKCREKSTGLQYAAKFIKKRRTKSSRRGVSREDIEREVSILKEIQHPNVITLHEVYENKTDVILILELVAGGELFDFLAEKESLTEEEATEFLKQILNGVYYLHSLQIAHFDLKPENIMLLDRNVPKPRIKIIDFGLAHKIDFGNEFKNIFGTPEFVAPEIVNYEPLGLEADMWSIGVITYILLSGASPFLGDTKQETLANVSAVNYEFEDEYFSNTSALAKDFIRRLLVKDPKKRMTIQDSLQHPWIKPKDTQQALSRKASAVNMEKFKKFAARKKWKQSVRLISLCQRLSRSFLSRSNMSVARSDDTLDEEDSFVMKAIIHAINDDNVPGLQHLLGSLSNYDVNQPNKHGTPPLLIAAGCGNIQILQLLIKRGSRIDVQDKGGSNAVYWAARHGHVDTLKFLSENKCPLDVKDKSGEMALHVAARYGHADVAQLLCSFGSNPNIQDKEEETPLHCAAWHGYYSVAKALCEAGCNVNIKNREGETPLLTASARGYHDIVECLAEHGADLNACDKDGHIALHLAVRRCQMEVIKTLLSQGCFVDYQDRHGNTPLHVACKDGNMPIVVALCEANCNLDISNKYGRTPLHLAANNGILDVVRYLCLMGASVEALTTDGKTAEDLARSEQHEHVAGLLARLRKDTHRGLFIQQLRPTQNLQPRIKLKLFGHSGSGKTTLVESLKCGLLRSFFRRRRPRLSSTNSSRFPPSPLASKPTVSVSINNLYPGCENVSVRSRSMMFEPGLTKGMLEVFVAPTHHPHCSADDQSTKAIDIQNAYLNGVGDFSVWEFSGNPVYFCCYDYFAANDPTSIHVVVFSLEEPYEIQLNQVIFWLSFLKSLVPVEEPIAFGGKLKNPLQVVLVATHADIMNVPRPAGGEFGYDKDTSLLKEIRNRFGNDLHISNKLFVLDAGASGSKDMKVLRNHLQEIRSQIVSVCPPMTHLCEKIISTLPSWRKLNGPNQLMSLQQFVYDVQDQLNPLASEEDLRRIAQQLHSTGEINIMQSETVQDVLLLDPRWLCTNVLGKLLSVETPRALHHYRGRYTVEDIQRLVPDSDVEELLQILDAMDICARDLSSGTMVDVPALIKTDNLHRSWADEEDEVMVYGGVRIVPVEHLTPFPCGIFHKVQVNLCRWIHQQSTEGDADIRLWVNGCKLANRGAELLVLLVNHGQGIEVQVRGLETEKIKCCLLLDSVCSTIENVMATTLPGLLTVKHYLSPQQLREHHEPVMIYQPRDFFRAQTLKETSLTNTMGGYKESFSSIMCFGCHDVYSQASLGMDIHASDLNLLTRRKLSRLLDPPDPLGKDWCLLAMNLGLPDLVAKYNTSNGAPKDFLPSPLHALLREWTTYPESTVGTLMSKLRELGRRDAADFLLKASSVFKINLDGNGQEAYASSCNSGTSYNSISSVVSR

Legend:
[1] = target: T1, mutant BH3 peptide (aa 108-127) in …
[2] = target: T2, peptide corresponding to Beclin's BH3 …
[3] = target: Flag-tagged Beclin-1 (wild type)
[4] = target: GST protein (GST alone) [GST: P08515]
[5] = target: GST-Beclin-1 fusion protein (wild type, bacterially purified, not phosphorylated)
Sequence of GST-Beclin-1 fusion protein (wild type, bacterially purified, not phosphorylated) (chain, as listed by the source): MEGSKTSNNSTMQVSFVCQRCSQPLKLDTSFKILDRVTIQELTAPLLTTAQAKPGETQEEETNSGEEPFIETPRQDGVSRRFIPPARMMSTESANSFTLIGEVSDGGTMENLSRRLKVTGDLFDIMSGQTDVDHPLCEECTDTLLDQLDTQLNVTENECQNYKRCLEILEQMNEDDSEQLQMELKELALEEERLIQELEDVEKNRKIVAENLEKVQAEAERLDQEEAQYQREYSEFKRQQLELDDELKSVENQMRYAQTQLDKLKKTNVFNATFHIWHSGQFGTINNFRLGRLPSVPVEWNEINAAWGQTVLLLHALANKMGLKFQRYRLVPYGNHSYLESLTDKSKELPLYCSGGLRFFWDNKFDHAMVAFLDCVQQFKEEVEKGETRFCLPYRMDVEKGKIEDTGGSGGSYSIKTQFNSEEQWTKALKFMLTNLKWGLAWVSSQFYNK

Sequence of GST protein (GST alone) [GST: P08515] (P08515 whole entry, the tested form may be a part): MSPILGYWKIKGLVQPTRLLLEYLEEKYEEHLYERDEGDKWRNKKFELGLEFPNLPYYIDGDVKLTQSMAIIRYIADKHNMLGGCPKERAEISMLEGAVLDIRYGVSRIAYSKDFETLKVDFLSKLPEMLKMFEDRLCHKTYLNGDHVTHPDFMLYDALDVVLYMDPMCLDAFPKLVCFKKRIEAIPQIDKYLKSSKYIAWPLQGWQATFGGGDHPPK
Sequence of Flag-tagged Beclin-1 (wild type) (chain, as listed by the source): as the sequence (chain, as listed by the source) above

Protein | peptide phosphorylation, filter assay counts [1] | peptide phosphorylation, filter assay counts against substrate concentration [2] | in vitro kinase assay, 33P incorporation (X-ray film) [3] | in vitro kinase assay, 33P incorporation (X-ray film) [4] | in vitro kinase assay, 33P incorporation (X-ray film) [5] | phosphorylation site mapping by mass spectrometry [5]
B1 | Changing Thr119 to alanine strongly inhibited the extent of peptide phosphorylation | DAPk phosphorylates Beclin's BH3 peptide in a dose-dependent manner |  |  |  | 
B2 |  |  | The phosphorylation by Flag-tagged (60 ng) DAPk was also observed when Flag-tagged Beclin-1 (250 ng), immunoprecipitated from HEK293T cells, was used as a substrate | GST-Beclin-1, but not GST alone, was phosphorylated by DAPk | GST-Beclin-1, but not GST alone, was phosphorylated by DAPk | two phosphorylation sites were identified with good accuracy ... a phosphorylation on S104 or T108, and the second was identified as Thr119
